Test results reported in US20150344580A1 (MSM PROTEIN TECHNOLOGIES, published 2015).

T1: human CXCR5 (human, UniProt P32302 1-372)
T1 construct: whole, on cells; CHO cells
T1 sequence (looked up): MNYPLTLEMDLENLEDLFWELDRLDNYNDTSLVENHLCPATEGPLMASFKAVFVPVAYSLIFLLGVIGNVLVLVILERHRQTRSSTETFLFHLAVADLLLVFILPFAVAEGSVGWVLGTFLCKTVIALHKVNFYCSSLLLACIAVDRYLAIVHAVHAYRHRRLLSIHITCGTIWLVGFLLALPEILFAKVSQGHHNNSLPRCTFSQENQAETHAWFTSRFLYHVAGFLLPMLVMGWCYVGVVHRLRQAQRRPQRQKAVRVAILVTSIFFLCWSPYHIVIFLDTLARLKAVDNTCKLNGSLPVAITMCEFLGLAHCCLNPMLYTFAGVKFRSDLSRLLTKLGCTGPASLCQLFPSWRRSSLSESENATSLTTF

T2: human chemokine receptor CCR7 (human, UniProt P32248 25-378)
T2 construct: On CHO, BHK, R1610 and Chem-1 transfectants and, natively, on human PBMC and the leukemia lines JVM-13 and CLL-AAT; also called human CCR7; hCCR7
T2 sequence: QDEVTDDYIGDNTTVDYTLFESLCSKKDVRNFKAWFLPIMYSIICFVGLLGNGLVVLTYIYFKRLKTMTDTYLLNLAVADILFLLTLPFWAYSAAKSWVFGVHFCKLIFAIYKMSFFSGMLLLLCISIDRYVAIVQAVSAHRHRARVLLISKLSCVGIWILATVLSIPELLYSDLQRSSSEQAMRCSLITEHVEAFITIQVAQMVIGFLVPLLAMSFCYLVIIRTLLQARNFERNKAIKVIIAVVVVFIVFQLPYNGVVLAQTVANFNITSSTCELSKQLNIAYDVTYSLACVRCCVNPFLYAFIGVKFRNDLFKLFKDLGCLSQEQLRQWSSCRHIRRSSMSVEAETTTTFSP

T3: mouse CCR7 (mouse, UniProt P47774 25-378)
T3 construct: whole, on cells; On CHO-mouse CCR7 cells and on mouse splenocytes; also called mouse CCR7 ortholog
T3 sequence (looked up): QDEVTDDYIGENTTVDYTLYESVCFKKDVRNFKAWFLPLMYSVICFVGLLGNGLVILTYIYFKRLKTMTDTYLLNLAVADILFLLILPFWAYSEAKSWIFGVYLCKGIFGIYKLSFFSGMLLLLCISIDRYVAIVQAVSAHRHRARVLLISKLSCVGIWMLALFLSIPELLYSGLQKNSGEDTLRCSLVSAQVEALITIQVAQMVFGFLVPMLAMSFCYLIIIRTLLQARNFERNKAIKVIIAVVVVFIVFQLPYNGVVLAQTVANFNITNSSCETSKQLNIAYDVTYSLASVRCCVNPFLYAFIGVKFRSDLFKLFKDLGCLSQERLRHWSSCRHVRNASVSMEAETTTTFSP

B1: MSM-R710 (fully human anti-human CCR7 antibody, IgG1) (antibody, V domains shown)
VH: EVQLLESGGGLVQPGGSLRLSCAASGFTFSNYTMHWVRQAPGKGLEWVSGIGPRSGRTYYADSVKGRFTISRDNSKNTLYLQMNSLRAEDTAVYYCARSYAYQYRGFDYWGQGTLVTVSS
VL: EIVLTQSPGTLSLSPGERATLSCRASQSVSSSYLAWYQQKPGQAPRLLIYGASSRATGIPDRFSGSGSGTDFTLTISRLEPEDFAVYYCQSSVTFGQGTKVEIKR
notes: IgG1 format
B2: MSM-R735 (fully human anti-human CCR7 antibody, IgG1) (antibody)
heavy: not shown
light: EIVLTQSPGTLSLSPGERATLSCRASQSVSSSYLAWYQQKPGQAPRLLIYGASSRATGIPDRFSGSGSGTDFTLTISRLEPEDFAVYYCQQGSPVTFGQGTKVEIKRTVAAPSVFIFPPSDEQLKSGTASVVCLLNNFYPREAKVQWKVDNALQSGNSQESVTEQDSKDSTYSLSSTLTLSKADYEKHKVYACEVTHQGLSSPVTKSFNRGEC
notes: IgG1 format; also called R735 Human IgG1

Experiments:
human CXCR5 = biological target: T1, human CXCR5; test: FACS, CHO-human CXCR5 cells
[1] = biological target: T2, human chemokine receptor CCR7; test: flow cytometry titration, BHK cells expressing human CCR7
Experimental: (§1) The affinity of IgG1 antibodies to human CCR7 was evaluated by measuring mean fluorescence value (MFI) of cells expressing CCR7 in the presence of varying concentration of antibody in question, upon staining of bound to the cells antibodies with a commercial anti-human antibody-PE conjugate. The data of such experiments are depicted in FIGS. 9, 10, and 11. In these experiments binding of some antibodies to parental cells or cells expressing mouse CCR7 was also quantitatively characterized by obtaining EC₅₀ value (a concentration of IgG1 at which half-maximum MFI is achieved) for each curve using the SoftMaxPro5 program.

mouse CCR7 [2] = biological target: T3, mouse CCR7; test: flow cytometry, mouse CCR7 cells (summary table)
[3] = biological target: T2, human chemokine receptor CCR7; test: cell-based or functional assay
[4] = biological target: T2, human chemokine receptor CCR7; test: flow cytometry titration, cells expressing CCR7; before storage (unit from the axis, nM)
[5] = biological target: T2, human chemokine receptor CCR7; test: flow cytometry titration, CCR7-expressing CHO cells; antibody not heat-treated
[6] = biological target: T2, human chemokine receptor CCR7; test: flow cytometry titration, cells expressing CCR7; after 4.5 months at 4 C (unit from the axis, nM)
[7] = biological target: T2, human chemokine receptor CCR7; test: flow cytometry titration, human CCR7-expressing CHO cells
mouse CCR7 [8] = biological target: T3, mouse CCR7; test: flow cytometry titration, CHO cells expressing mouse CCR7
[9] = biological target: T2, human chemokine receptor CCR7; test: flow cytometry titration, CHO-human CCR7 cells
Experimental: as §1

mouse CCR7 [10] = biological target: T3, mouse CCR7; test: flow cytometry titration, CHO-mouse CCR7 cells
Experimental: as §1

[11] = biological target: T2, human chemokine receptor CCR7; test: flow cytometry, human CCR7 cells (summary table)
[12] = biological target: T2, human chemokine receptor CCR7; test: flow cytometry titration, CCR7-expressing CHO cells; antibody kept 12 h at 40 C

Binder	binding result (human CXCR5)	EC50 [1] [nM]	EC50 (mouse CCR7 [2]) [nM]	EC50 of killing of JVM-13 cells with Fab-ZAP [3] [nM]	IC50 of decrease in cell viability with human Fab-ZAP, JVM-13 cells [3] [nM]	IC50 of inhibition of Ca-flux induced by 15 nM CCL19, Chem-1 CCR7 human cells [3] [nM]	EC50 [4] [nM]	EC50 [5] [nM]	EC50 [6] [nM]	EC50 [7] [nM]	EC50 (mouse CCR7 [8]) [nM]	EC50 [9] [nM]	EC50 (mouse CCR7 [10]) [nM]	EC50 [11] [nM]	EC50 [12] [nM]
B1	no binding (tested: 200 nM MAB mixed 1:1 with cells)	3.8	–	–	–	–	–	–	–	–	–	–	–	–	–
B2	no binding (tested: 200 nM MAB mixed 1:1 with cells)	–	1	19	~1.2	67	2.47	3	2.06	3.7	2.4	0.7	~642	4	3.1
